Measured values reported in publication PMC5546038.

Key:
Test in all cases: ELISA
[1] = biological target: C1q; conditions: Ab 20 µg/ml (highest point of the titration); parent: est. 1.7; read off a plot
[2] = biological target: human FcγRI (UniProt P12314); conditions: Fc 20 µg/ml (highest point of the titration); parent: est. 2.1; read off a plot
[3] = biological target: human FcγRIIA (UniProt P12318); conditions: Fc 20 µg/ml (highest point of the titration); parent: est. 0.53; read off a plot
human FcγRIIA, sequence (P12318 34-217): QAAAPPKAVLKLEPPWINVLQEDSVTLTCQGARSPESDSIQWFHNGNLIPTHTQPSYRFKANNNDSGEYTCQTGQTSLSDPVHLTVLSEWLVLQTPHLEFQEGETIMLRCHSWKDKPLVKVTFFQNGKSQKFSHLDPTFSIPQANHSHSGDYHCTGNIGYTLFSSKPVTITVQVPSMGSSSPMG

[4] = biological target: human FcγRIIB (UniProt P31994); conditions: Fc 20 µg/ml (highest point of the titration); parent: est. 0.20; read off a plot
human FcγRIIB, sequence (P31994 43-217): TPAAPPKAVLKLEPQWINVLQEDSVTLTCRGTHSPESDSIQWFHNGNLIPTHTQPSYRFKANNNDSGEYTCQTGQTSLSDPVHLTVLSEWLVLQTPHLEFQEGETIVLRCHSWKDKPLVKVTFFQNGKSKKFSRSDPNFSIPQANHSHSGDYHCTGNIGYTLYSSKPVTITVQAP

[5] = biological target: human FcγRIIIA (UniProt P08637); conditions: Fc 20 µg/ml (highest point of the titration); parent: est. 0.99; read off a plot
human FcγRIIIA, sequence (P08637 17-208): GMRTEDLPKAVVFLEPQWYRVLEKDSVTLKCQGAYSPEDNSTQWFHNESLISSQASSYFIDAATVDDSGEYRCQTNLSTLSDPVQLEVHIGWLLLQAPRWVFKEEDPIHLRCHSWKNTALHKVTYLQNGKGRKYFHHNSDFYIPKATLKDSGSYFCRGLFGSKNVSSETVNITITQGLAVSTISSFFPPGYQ

[6] = biological target: human FcγRIIIB (UniProt O75015); conditions: Fc 20 µg/ml (highest point of the titration); parent: est. 0.19; read off a plot
human FcγRIIIB, sequence (O75015 17-200): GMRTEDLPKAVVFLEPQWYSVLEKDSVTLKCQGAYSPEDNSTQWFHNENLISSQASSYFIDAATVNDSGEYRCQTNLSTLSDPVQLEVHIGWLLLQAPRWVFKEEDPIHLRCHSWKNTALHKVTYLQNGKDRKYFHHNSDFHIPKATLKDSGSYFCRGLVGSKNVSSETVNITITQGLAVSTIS

[7] = biological target: human Siglec-1 (UniProt Q9BZZ2); conditions: Fc 50 µg/ml (highest point of the titration); parent: est. 1.2; read off a plot
human Siglec-1, sequence (Q9BZZ2 20-1641): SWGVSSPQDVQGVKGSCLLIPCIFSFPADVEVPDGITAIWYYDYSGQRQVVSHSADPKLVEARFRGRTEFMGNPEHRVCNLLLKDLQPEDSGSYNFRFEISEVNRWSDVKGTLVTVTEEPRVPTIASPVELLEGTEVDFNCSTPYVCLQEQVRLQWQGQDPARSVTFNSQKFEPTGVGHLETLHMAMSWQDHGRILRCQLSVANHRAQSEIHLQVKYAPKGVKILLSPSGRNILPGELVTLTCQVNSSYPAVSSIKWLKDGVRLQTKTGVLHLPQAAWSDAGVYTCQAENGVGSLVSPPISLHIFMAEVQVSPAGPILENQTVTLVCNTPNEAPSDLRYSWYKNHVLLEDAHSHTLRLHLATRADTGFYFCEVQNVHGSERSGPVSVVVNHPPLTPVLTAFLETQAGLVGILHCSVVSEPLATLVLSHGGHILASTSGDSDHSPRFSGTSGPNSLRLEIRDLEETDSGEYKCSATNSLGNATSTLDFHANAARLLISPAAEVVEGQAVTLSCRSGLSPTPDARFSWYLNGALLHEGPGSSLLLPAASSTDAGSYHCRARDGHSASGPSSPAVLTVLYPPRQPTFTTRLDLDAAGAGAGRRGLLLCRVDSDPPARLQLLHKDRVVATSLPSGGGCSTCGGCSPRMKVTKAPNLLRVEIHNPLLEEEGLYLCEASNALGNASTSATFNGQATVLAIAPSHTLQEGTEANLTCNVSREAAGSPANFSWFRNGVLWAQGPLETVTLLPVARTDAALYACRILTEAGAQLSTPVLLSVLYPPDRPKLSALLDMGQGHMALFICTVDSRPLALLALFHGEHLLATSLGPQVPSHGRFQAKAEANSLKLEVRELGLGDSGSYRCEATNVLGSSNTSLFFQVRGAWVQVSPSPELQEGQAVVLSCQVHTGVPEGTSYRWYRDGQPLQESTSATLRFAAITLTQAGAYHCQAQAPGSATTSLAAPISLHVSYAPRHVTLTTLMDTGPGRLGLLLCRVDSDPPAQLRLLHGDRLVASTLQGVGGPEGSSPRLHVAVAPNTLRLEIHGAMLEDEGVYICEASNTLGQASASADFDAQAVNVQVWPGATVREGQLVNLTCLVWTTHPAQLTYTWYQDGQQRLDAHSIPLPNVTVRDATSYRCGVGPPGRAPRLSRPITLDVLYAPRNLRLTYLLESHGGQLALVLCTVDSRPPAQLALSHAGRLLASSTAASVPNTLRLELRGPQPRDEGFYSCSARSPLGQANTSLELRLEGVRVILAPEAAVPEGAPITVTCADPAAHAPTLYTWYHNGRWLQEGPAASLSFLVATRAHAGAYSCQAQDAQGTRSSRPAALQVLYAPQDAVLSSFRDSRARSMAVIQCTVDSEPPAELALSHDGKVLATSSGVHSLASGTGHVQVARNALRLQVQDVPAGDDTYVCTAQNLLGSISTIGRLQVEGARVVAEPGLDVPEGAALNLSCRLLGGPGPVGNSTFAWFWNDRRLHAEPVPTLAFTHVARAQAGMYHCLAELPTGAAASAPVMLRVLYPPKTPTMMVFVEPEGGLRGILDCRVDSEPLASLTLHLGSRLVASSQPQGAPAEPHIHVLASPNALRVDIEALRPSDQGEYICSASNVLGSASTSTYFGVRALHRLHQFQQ

[8] = biological target: soluble recombinant tetrameric human DC-SIGN (UniProt Q9NNX6); conditions: Fc 20 µg/ml (highest point of the titration); parent: est. 0.98; read off a plot

human FcγRI, sequence (P12314 16-292): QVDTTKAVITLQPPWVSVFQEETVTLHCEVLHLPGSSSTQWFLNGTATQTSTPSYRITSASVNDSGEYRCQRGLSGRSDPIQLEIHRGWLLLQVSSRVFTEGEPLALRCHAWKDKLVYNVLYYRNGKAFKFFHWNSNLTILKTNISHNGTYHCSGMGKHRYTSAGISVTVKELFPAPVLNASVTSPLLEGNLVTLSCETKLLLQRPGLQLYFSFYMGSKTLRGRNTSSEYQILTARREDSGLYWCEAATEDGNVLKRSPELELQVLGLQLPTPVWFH

Substance | response [1] [OD 405nm] | response [2] [OD 405nm] | response [3] [OD 405nm] | response [4] [OD 405nm] | response [5] [OD 405nm] | response [6] [OD 405nm] | response [7] [OD 405nm] | response [8] [OD 405nm]
hexa-Fc (human IgG1-Fc with L309C/H310L and the 18-amino acid IgM tail piece) D221N | 1.8 | 0.24 | 0.12 | 0.08 | 0.09 | 0.073 | 1.2 | 0.64
hexa-Fc (human IgG1-Fc with L309C/H310L and the 18-amino acid IgM tail piece) D221N; N297A | 0.93 | 0.065 | 0.065 | 0.069 | 0.07 | 0.073 | 0.96 | 0.33
hexa-Fc (human IgG1-Fc with L309C/H310L and the 18-amino acid IgM tail piece) D221N; N297A; N563A | 0.9 | – | – | – | – | – | 1.7 | 0.37
hexa-Fc (human IgG1-Fc with L309C/H310L and the 18-amino acid IgM tail piece) D221N; N563A | 2.2 | 2 | 0.33 | 0.12 | 1.6 | 0.1 | 1.6 | 0.57
hexa-Fc (human IgG1-Fc with L309C/H310L and the 18-amino acid IgM tail piece) N297A | 0.9 | 0.065 | 0.065 | 0.069 | 0.07 | 0.073 | – | 0.28
hexa-Fc (human IgG1-Fc with L309C/H310L and the 18-amino acid IgM tail piece) N297A; N563A | 0.97 | – | – | – | – | – | 0.15 | 0.27
hexa-Fc (human IgG1-Fc with L309C/H310L and the 18-amino acid IgM tail piece) N563A | 2.3 | – | – | – | – | – | – | 0.84
